This passage reports abundance fitness results from the Human Domainome abundance scans (Beltran et al. 2025).

The labels stand for the following.
B1: POU domain, class 2, transcription factor 2, residues 200 to 269; numbered along this chain, P09086 (parent)
chain: LEELEQFARTFKQRRIKLGFTQGDVGLAMGKLYGNDFSQTTISRFEALNLSFKNMCKLKPLLEKWLNDAE

± gives the uncertainty stated by the source.

Variants of B1 are the subject of the data set. The experiment in a line: abundance fitness (aPCA) (normalised: wild type 0, dead -1); higher = more abundant; growth selection in yeast, the domain comes from the species named. To be noted: Homo sapiens.
Turning to LEELEQFARTFKQTRIKLGFTQGDVGLAMGKLYGNDFSQTTISRFEALNLSFKNMCKLKPLLEKWLNDAE, the abundance fitness is 0.023 ± 0.047.

For the variant LEELEQFARTFKQQRIKLGFTQGDVGLAMGKLYGNDFSQTTISRFEALNLSFKNMCKLKPLLEKWLNDAE, the abundance fitness was -0.084 ± 0.069.

As to LEELEQFARTFKQGRIKLGFTQGDVGLAMGKLYGNDFSQTTISRFEALNLSFKNMCKLKPLLEKWLNDAE, the abundance fitness was -0.021 ± 0.033.

On to LEELEQFARTFKQKRIKLGFTQGDVGLAMGKLYGNDFSQTTISRFEALNLSFKNMCKLKPLLEKWLNDAE, for which the abundance fitness is 0.024 ± 0.075.

In the case of LEELEQFARTFKQIRIKLGFTQGDVGLAMGKLYGNDFSQTTISRFEALNLSFKNMCKLKPLLEKWLNDAE, the abundance fitness is -0.261 ± 0.14.

For LEELEQFARTFKQERIKLGFTQGDVGLAMGKLYGNDFSQTTISRFEALNLSFKNMCKLKPLLEKWLNDAE, the abundance fitness was -0.138 ± 0.062.

For LEELEQFARTFKQYRIKLGFTQGDVGLAMGKLYGNDFSQTTISRFEALNLSFKNMCKLKPLLEKWLNDAE, the abundance fitness was -0.149 ± 0.066.

On to LEELEQFARTFKQDRIKLGFTQGDVGLAMGKLYGNDFSQTTISRFEALNLSFKNMCKLKPLLEKWLNDAE, for which the abundance fitness is -0.327 ± 0.11.

For LEELEQFARTFKQMRIKLGFTQGDVGLAMGKLYGNDFSQTTISRFEALNLSFKNMCKLKPLLEKWLNDAE, the abundance fitness was -0.061 ± 0.073.

On to LEELEQFARTFKQNRIKLGFTQGDVGLAMGKLYGNDFSQTTISRFEALNLSFKNMCKLKPLLEKWLNDAE, for which the abundance fitness came out at 0.03 ± 0.11.

For LEELEQFARTFKQWRIKLGFTQGDVGLAMGKLYGNDFSQTTISRFEALNLSFKNMCKLKPLLEKWLNDAE, the abundance fitness was -0.271 ± 0.051.

For LEELEQFARTFKQVRIKLGFTQGDVGLAMGKLYGNDFSQTTISRFEALNLSFKNMCKLKPLLEKWLNDAE, the abundance fitness was -0.128 ± 0.038.

Consider LEELEQFARTFKQPRIKLGFTQGDVGLAMGKLYGNDFSQTTISRFEALNLSFKNMCKLKPLLEKWLNDAE, for which the abundance fitness is -1.23 ± 0.34.

On to LEELEQFARTFKQHRIKLGFTQGDVGLAMGKLYGNDFSQTTISRFEALNLSFKNMCKLKPLLEKWLNDAE, for which the abundance fitness is -0.118 ± 0.053.

As to LEELEQFARTFKQARIKLGFTQGDVGLAMGKLYGNDFSQTTISRFEALNLSFKNMCKLKPLLEKWLNDAE, the abundance fitness is -0.064 ± 0.048.

With LEELEQFARTCKQRRIKLGFTQGDVGLAMGKLYGNDFSQTTISRFEALNLSFKNMCKLKPLLEKWLNDAE, the abundance fitness is -0.143 ± 0.089.

Turning to LEELEQFARTAKQRRIKLGFTQGDVGLAMGKLYGNDFSQTTISRFEALNLSFKNMCKLKPLLEKWLNDAE, the abundance fitness is -0.151 ± 0.033.

In the case of LEELEQFARTWKQRRIKLGFTQGDVGLAMGKLYGNDFSQTTISRFEALNLSFKNMCKLKPLLEKWLNDAE, the abundance fitness was -0.209 ± 0.04.

In the case of LEELEQFARTKKQRRIKLGFTQGDVGLAMGKLYGNDFSQTTISRFEALNLSFKNMCKLKPLLEKWLNDAE, the abundance fitness was -0.961 ± 0.25.

In the case of LEELEQFARTSKQRRIKLGFTQGDVGLAMGKLYGNDFSQTTISRFEALNLSFKNMCKLKPLLEKWLNDAE, the abundance fitness is -0.242 ± 0.053.

Regarding LEELEQFARTRKQRRIKLGFTQGDVGLAMGKLYGNDFSQTTISRFEALNLSFKNMCKLKPLLEKWLNDAE, the abundance fitness was -1.01 ± 0.088.

Take LEELEQFARTQKQRRIKLGFTQGDVGLAMGKLYGNDFSQTTISRFEALNLSFKNMCKLKPLLEKWLNDAE: the abundance fitness is -1.01 ± 0.23.

As for LEELEQFARTYKQRRIKLGFTQGDVGLAMGKLYGNDFSQTTISRFEALNLSFKNMCKLKPLLEKWLNDAE, the abundance fitness is -0.627 ± 0.17.

Turning to LEELEQFARTPKQRRIKLGFTQGDVGLAMGKLYGNDFSQTTISRFEALNLSFKNMCKLKPLLEKWLNDAE, the abundance fitness is -1.03 ± 0.15.

For the variant LEELEQFARTDKQRRIKLGFTQGDVGLAMGKLYGNDFSQTTISRFEALNLSFKNMCKLKPLLEKWLNDAE, the abundance fitness was -0.565 ± 0.096.

For the variant LEELEQFARTLKQRRIKLGFTQGDVGLAMGKLYGNDFSQTTISRFEALNLSFKNMCKLKPLLEKWLNDAE, the abundance fitness was -0.177 ± 0.034.

As to LEELEQFARTEKQRRIKLGFTQGDVGLAMGKLYGNDFSQTTISRFEALNLSFKNMCKLKPLLEKWLNDAE, the abundance fitness is -0.977 ± 0.15.

On to LEELEQFARTTKQRRIKLGFTQGDVGLAMGKLYGNDFSQTTISRFEALNLSFKNMCKLKPLLEKWLNDAE, for which the abundance fitness was -0.495 ± 0.073.

Consider LEELEQFARTMKQRRIKLGFTQGDVGLAMGKLYGNDFSQTTISRFEALNLSFKNMCKLKPLLEKWLNDAE, for which the abundance fitness is -0.167 ± 0.055.

For the variant LEELEQFARTVKQRRIKLGFTQGDVGLAMGKLYGNDFSQTTISRFEALNLSFKNMCKLKPLLEKWLNDAE, the abundance fitness was -0.239 ± 0.033.

Turning to LEELEQFARTGKQRRIKLGFTQGDVGLAMGKLYGNDFSQTTISRFEALNLSFKNMCKLKPLLEKWLNDAE, the abundance fitness was -0.789 ± 0.053.

Consider LEELEQFARTIKQRRIKLGFTQGDVGLAMGKLYGNDFSQTTISRFEALNLSFKNMCKLKPLLEKWLNDAE, for which the abundance fitness was -0.254 ± 0.075.

Consider LEELEQFARTNKQRRIKLGFTQGDVGLAMGKLYGNDFSQTTISRFEALNLSFKNMCKLKPLLEKWLNDAE, for which the abundance fitness is -1.1 ± 0.4.

Turning to LEELEQFARTFKGRRIKLGFTQGDVGLAMGKLYGNDFSQTTISRFEALNLSFKNMCKLKPLLEKWLNDAE, the abundance fitness is -0.038 ± 0.034.

For LEELEQFARTFKKRRIKLGFTQGDVGLAMGKLYGNDFSQTTISRFEALNLSFKNMCKLKPLLEKWLNDAE, the abundance fitness is -0.041 ± 0.05.

Take LEELEQFARTFKSRRIKLGFTQGDVGLAMGKLYGNDFSQTTISRFEALNLSFKNMCKLKPLLEKWLNDAE: the abundance fitness was -0.006 ± 0.028.

For LEELEQFARTFKWRRIKLGFTQGDVGLAMGKLYGNDFSQTTISRFEALNLSFKNMCKLKPLLEKWLNDAE, the abundance fitness is -0.172 ± 0.038.

Take LEELEQFARTFKFRRIKLGFTQGDVGLAMGKLYGNDFSQTTISRFEALNLSFKNMCKLKPLLEKWLNDAE: the abundance fitness is -0.032 ± 0.089.
